{
  "source": "paper PMC7431520",
  "key": {"[1]": {"target": "recombinant LAL2 (rLAL2) protein (Lampetra japonica)", "assay": "SPR; rLAL2 coupled to a CM5 chip (NHS/EDC, buffer pH 4.0, blocked with ethanolamine); LIP as analyte at different concentrations in HBS-EP; Biacore T200; affinity kinetics fitting"}, "[2]": {"target": "natural LAL2 protein (Lampetra japonica)", "assay": "SDS-PAGE and western blot band identified by LC-MS/MS; lamprey serum on 12% SDS-PAGE, blot with rabbit anti-LAL2 antibody; band around 40 kDa analysed by LC-MS/MS of tryptic peptides"}, "[3]": {"target": "lamprey immune protein (LIP) (Lampetra japonica)", "assay": "SPR; LIP coupled to a CM5 chip (NHS/EDC, buffer pH 4.0, blocked with ethanolamine); analyte (rLAL2 or TRX) at different concentrations in HBS-EP; Biacore T200; affinity kinetics fitting"}},
  "data": [
    {"substance": "lamprey immune protein (LIP) (natural protein)", "values": [
      {"measurement": "Kd", "setting": "[1]", "result": 0.0211, "unit": "µM"}
    ]},
    {"substance": "natural LAL2 protein (natural protein)", "values": [
      {"measurement": "stoichiometry N", "setting": "[2]", "result": 2}
    ]},
    {"substance": "recombinant LAL2 (rLAL2) protein (natural protein)", "values": [
      {"measurement": "Kd", "setting": "[3]", "result": 0.0558, "unit": "µM"}
    ]}
  ]
}
